Data as given in publication PMC12499500, “Structural Basis of GABAB Receptor Activation during Evolution” (Advanced Science, 2025).

How the values were obtained:
Assay in all cases: cell-based or functional assay
[1] = biological target: dGB2 12A (ordered C-terminus 717–728 replaced by 12 alanines) (Drosophila melanogaster, UniProt Q9BML6 1-1220, 12A: residues 717–728 replaced with 12 consecutive alanine residues)
[2] = biological target: dGB2 4 × GSG (ordered C-terminus 717–728 replaced by four glycine-serine-glycine) (Drosophila melanogaster, UniProt Q9BML6 1-1220, 4 × GSG: residues 717–728 replaced with four consecutive glycine-serine-glycine)
[3] = biological target: T1, human GB2 Δ772 (human, UniProt O75899 42-772)
T1 sequence (looked up): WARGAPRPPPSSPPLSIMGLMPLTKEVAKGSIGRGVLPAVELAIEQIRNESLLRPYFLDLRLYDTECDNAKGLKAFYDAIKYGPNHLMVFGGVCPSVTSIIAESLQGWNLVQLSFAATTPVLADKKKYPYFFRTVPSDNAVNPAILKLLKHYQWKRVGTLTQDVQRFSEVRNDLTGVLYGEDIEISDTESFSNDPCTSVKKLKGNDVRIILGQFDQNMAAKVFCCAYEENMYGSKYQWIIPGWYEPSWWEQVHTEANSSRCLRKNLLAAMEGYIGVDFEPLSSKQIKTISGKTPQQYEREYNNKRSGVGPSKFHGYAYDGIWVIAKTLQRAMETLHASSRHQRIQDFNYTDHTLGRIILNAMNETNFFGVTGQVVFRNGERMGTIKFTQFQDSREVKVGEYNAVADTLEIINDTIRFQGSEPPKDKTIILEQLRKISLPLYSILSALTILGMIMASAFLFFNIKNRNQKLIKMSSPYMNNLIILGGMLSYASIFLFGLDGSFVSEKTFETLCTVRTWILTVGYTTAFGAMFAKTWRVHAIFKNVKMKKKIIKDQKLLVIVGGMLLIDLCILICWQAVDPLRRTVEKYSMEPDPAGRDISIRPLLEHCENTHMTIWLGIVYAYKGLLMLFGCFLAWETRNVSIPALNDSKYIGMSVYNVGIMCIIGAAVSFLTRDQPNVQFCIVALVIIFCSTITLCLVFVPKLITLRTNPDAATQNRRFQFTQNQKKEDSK

[4] = biological target: T2, human GB2 Δ765 (human, UniProt O75899 42-765)
T2 sequence (looked up): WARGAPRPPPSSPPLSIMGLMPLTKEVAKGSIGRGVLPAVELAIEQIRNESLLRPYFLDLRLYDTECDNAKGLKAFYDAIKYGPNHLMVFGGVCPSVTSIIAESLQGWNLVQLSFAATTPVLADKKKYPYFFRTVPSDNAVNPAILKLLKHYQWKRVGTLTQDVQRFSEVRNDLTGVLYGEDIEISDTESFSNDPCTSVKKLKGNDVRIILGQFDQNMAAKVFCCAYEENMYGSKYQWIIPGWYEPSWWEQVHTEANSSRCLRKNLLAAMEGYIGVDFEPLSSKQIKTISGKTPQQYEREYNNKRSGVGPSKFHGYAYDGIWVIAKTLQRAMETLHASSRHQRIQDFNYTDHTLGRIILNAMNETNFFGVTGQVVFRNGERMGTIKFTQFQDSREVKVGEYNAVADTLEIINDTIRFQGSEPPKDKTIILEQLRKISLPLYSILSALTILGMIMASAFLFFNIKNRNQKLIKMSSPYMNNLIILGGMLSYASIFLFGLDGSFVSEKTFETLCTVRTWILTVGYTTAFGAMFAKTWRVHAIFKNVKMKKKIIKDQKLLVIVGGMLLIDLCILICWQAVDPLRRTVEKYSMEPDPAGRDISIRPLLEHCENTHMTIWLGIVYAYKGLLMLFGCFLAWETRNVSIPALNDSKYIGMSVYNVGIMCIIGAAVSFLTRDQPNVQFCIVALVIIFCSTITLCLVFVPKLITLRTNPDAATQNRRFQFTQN

[5] = biological target: T3, human GB2 Δ760 (human, UniProt O75899 42-760)
T3 sequence (looked up): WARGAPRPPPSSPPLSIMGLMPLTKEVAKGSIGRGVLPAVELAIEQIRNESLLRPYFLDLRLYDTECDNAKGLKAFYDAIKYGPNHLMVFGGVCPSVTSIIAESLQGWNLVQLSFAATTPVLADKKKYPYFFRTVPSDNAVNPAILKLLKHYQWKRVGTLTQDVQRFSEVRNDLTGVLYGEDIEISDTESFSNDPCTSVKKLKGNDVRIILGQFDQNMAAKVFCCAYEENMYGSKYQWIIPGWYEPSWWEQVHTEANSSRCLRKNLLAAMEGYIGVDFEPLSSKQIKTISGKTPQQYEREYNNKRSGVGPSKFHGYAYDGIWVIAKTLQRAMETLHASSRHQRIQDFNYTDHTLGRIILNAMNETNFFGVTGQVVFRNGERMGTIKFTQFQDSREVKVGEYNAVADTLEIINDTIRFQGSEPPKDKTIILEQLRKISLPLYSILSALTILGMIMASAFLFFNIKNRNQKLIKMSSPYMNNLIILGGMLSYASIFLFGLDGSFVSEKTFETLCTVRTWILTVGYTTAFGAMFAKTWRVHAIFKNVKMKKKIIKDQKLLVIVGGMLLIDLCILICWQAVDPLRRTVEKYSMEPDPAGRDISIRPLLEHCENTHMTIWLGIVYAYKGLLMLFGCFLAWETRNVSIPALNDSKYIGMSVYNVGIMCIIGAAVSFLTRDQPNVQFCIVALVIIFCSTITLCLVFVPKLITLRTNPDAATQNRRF

[6] = biological target: T4, human GB2 Δ753 (human, UniProt O75899 42-753)
T4 sequence (looked up): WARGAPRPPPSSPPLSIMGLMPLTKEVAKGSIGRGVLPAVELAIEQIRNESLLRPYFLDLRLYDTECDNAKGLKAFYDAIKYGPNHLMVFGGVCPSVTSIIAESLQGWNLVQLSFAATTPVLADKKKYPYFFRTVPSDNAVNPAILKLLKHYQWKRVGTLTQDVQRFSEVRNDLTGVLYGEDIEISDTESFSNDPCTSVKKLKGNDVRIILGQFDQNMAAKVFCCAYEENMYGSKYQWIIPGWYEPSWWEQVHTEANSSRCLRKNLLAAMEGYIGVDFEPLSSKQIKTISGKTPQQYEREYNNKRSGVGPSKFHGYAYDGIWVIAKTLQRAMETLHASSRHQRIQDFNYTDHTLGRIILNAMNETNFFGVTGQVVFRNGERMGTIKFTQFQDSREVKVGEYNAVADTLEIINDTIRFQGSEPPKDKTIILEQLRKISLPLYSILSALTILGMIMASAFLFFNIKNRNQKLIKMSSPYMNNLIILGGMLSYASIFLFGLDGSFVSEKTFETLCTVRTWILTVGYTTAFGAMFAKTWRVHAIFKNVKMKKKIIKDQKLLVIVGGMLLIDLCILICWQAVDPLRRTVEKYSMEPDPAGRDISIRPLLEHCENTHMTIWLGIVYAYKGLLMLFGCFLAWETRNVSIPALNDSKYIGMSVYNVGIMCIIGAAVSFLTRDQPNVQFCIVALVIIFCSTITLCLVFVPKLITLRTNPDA

Chain of dGB2 12A (ordered C-terminus 717–728 replaced by 12 alanines) (Q9BML6 entry or part of it with the stated changes): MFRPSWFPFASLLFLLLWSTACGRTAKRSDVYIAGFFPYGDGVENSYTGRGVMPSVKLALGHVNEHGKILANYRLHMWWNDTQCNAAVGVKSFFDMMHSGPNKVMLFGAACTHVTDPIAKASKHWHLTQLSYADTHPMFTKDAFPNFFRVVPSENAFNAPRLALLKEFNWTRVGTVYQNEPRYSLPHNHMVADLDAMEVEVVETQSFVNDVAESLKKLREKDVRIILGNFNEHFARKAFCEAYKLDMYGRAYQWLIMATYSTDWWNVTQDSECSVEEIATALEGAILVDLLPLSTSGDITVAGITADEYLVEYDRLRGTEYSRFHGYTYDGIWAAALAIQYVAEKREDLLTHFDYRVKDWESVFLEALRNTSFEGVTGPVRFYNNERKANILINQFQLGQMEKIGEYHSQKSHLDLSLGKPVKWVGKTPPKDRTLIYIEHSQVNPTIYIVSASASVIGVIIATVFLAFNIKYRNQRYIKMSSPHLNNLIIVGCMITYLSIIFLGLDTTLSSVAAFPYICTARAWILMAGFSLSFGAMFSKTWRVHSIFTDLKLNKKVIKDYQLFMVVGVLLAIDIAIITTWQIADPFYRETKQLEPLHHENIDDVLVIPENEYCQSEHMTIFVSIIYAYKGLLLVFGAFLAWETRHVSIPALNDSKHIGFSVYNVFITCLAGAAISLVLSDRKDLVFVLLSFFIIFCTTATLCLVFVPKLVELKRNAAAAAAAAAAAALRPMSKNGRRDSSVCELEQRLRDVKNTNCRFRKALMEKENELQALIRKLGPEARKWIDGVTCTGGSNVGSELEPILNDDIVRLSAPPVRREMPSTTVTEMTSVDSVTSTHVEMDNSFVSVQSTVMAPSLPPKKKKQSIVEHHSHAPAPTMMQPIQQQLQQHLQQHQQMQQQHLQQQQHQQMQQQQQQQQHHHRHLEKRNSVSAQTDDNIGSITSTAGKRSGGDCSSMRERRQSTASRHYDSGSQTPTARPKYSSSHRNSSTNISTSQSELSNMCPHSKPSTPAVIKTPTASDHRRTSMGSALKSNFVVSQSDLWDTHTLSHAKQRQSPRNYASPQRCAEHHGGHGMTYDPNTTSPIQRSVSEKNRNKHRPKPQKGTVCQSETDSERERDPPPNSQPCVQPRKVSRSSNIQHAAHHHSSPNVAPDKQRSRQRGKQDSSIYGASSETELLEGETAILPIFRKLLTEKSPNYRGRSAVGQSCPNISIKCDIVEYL
Chain of dGB2 4 × GSG (ordered C-terminus 717–728 replaced by four glycine-serine-glycine) (Q9BML6 entry or part of it with the stated changes): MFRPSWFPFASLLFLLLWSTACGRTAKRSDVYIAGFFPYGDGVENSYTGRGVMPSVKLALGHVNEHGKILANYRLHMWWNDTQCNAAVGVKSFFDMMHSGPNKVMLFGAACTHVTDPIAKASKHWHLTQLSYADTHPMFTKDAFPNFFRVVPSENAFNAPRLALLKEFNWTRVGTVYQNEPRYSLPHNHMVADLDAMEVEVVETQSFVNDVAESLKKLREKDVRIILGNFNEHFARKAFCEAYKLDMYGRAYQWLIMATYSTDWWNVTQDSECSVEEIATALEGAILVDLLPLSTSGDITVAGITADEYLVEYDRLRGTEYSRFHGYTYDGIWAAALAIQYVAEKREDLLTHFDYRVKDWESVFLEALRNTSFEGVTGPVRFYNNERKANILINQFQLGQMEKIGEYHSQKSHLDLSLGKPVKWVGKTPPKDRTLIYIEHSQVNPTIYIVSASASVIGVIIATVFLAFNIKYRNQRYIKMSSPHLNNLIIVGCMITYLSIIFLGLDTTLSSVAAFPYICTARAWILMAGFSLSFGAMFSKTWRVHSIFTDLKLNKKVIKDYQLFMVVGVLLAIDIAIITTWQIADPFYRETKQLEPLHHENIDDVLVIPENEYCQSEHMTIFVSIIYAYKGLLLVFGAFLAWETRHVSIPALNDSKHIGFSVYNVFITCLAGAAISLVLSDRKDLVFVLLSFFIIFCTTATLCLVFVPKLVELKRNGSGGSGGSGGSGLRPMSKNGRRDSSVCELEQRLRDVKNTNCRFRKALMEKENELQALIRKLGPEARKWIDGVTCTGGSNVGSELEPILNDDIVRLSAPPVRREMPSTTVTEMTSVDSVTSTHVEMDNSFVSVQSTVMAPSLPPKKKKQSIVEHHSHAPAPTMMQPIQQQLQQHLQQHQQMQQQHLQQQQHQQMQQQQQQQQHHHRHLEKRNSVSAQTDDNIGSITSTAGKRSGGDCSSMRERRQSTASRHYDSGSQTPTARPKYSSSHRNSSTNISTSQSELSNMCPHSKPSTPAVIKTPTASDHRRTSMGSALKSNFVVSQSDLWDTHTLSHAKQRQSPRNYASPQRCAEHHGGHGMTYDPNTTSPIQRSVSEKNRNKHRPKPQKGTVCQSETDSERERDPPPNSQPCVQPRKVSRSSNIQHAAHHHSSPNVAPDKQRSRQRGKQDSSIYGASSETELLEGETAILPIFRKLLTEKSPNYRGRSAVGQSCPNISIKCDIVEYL

B1: dominant-negative Gαi1 (S47N, G203A, E245A, A326S) (natural protein, human)
chain: MGCTLSAEDKAAVERSKMIDRNLREDGEKAAREVKLLLLGAGESGKNTIVKQMKIIHEAGYSEEECKQYKAVVYSNTIQSIIAIIRAMGRLKIDFGDSARADDARQLFVLAGAAEEGFMTAELAGVIKRLWKDSGVQACFNRSREYQLNDSAAYYLNDLDRIAQPNYIPTQQDVLRTRVKTTGIVETHFTFKDLHFKMFDVGAQRSERKKWIHCFEGVTAIIFCVALSDYDLVLAEDEEMNRMHASMKLFDSICNNKWFTDTSIILFLNKKDLFEEKIKKSPLTICYPEYAGSNTYEEAAAYIQCQFEDLNKRKDTKEIYTHFTCSTDTKNVQFVFDAVTDVIIKNNLKDCGLF
BRET assay of GABA-induced dissociation of Gαi1 and Gβγ in HEK293 cells, change of EC50 against wild-type dGB2 [1]: 8.8 fold
GABA-induced intracellular Ca2+ release (Gqi9), change of EC50 of GABA against wild-type dGB2 [1]: 2 fold
BRET assay of GABA-induced dissociation of Gαi1 and Gβγ in HEK293 cells, change of EC50 against wild-type dGB2 [2]: 3 fold
GABA-induced intracellular Ca2+ release, HEK293 cells co-transfected with GB1ΔCC and the GB2 truncation, increase in EC50 against Δ780 of GB2 [3]: 6.5 fold
GABA-induced intracellular Ca2+ release, HEK293 cells co-transfected with GB1ΔCC and the GB2 truncation, increase in EC50 against Δ780 of GB2 [4]: 9.4 fold
GABA-induced intracellular Ca2+ release, HEK293 cells co-transfected with GB1ΔCC and the GB2 truncation, reduction in E max against Δ780 of GB2 [4]: 22 % reduction in E max
GABA-induced intracellular Ca2+ release, HEK293 cells co-transfected with GB1ΔCC and the GB2 truncation, increase in EC50 against Δ780 of GB2 [5]: 16.2 fold
GABA-induced intracellular Ca2+ release, HEK293 cells co-transfected with GB1ΔCC and the GB2 truncation, reduction in E max against Δ780 of GB2 [5]: 39 % reduction in E max
GABA-induced intracellular Ca2+ release, HEK293 cells co-transfected with GB1ΔCC and the GB2 truncation, increase in EC50 against Δ780 of GB2 [6]: 30.8 fold
GABA-induced intracellular Ca2+ release, HEK293 cells co-transfected with GB1ΔCC and the GB2 truncation, reduction in E max against Δ780 of GB2 [6]: 76 % reduction in E max
